Drawing on patent US20230183661A1, “BICOMPATIBLE PEPTIDEBIOCOMPATIBLE PEPTIDES FOR INHIBITION OF AGGREGATION OF B-AMYLOID PROTEIN” (Catholic University Industry Academic Cooperation Foundation, priority 2017, published 2023), this text covers Binding strength with β-amyloid, fluorescence recovery after photobleaching (FRAP) of Aβ in N2a cells, within 20 seconds and fluorescence recovery after photobleaching (FRAP) of Aβ in N2a cells, within 90 seconds for four substances.

Assay [1] deals with β-amyloid (Aβ) overexpressed in nerve cells (UniProt P05067). The assay is described as follows: Co-IP from N2a cells, relative score.
Assay [2] shares this target. As to the kind of experiment: cell-based or functional assay.

Chain of Peptide 5 (β 1-5 fragment of SOD1), NABi (Natural Amyloid β Binder and Amyloid β aggregation inhibitor) (P00441 2-91): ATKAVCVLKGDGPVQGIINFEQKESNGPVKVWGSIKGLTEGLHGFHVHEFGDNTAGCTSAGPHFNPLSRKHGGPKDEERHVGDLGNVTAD

Regarding “Peptide 2 (β 2-7/T fragment of SOD1) (from UniProt P00441 16-145)”, in assay [1], the Binding strength with β-amyloid came to 3.5.

For the substance “Peptide 3 (β 4-6 fragment of SOD1) (from UniProt P00441 40-114)”, in assay [1], the Binding strength with β-amyloid stood at 0.

Substance “Peptide 5 (β 1-5 fragment of SOD1), NABi (Natural Amyloid β Binder and Amyloid β aggregation inhibitor)” yielded a Binding strength with β-amyloid in assay [1] of 1. In assay [2], this substance gave a fluorescence recovery after photobleaching (FRAP) of Aβ in N2a cells, within 20 seconds of 50% and a fluorescence recovery after photobleaching (FRAP) of Aβ in N2a cells, within 90 seconds of 75%.

Regarding “Peptide 6 (β 5-8 fragment of SOD1) (from UniProt P00441 81-154)”, the Binding strength with β-amyloid in assay [1] came to 0.
